# Values quoted from earlier work, collected in patent US11340238B2 (Biocon Limited, priority 2015, dated 2022).
# Settings: Type 1 Diabetes Mellitus patients on RHI therapy
substance,measurement,value
recombinant Human insulin [RHI],Cmax,~100 mU/L
